Experimental findings from US20160102139A1 (NATIONAL UNIVERSITY CORPORATION CHIBA UNIVERSITY, published 2016) are described below.

B1: 3xFlag mCD69EC treated with the deglycosylation enzyme PNGase F (receptor, mouse, UniProt P37217 62-199, looked up)
chain: NVGKYNCPGLYEKLESSDHHVATCKNEWISYKRTCYFFSTTTKSWALAQRSCSEDAATLAVIDSEKDMTFLKRYSGELEHWIGLKNEANQTWKWANGKEFNSWFNLTGSGRCVSVNHKNVTAVDCEANFHWVCSKPSR
modifications: N-glycans removed by PNGase F (500 U per 1 ug protein)
notes: extracellular domain; Same polypeptide as m2, after deglycosylation with N-glycosidase PNGase F; also called CD69EC previously treated with PNGase F; deglycosylated 3xFLAG mCD69EC; not shown: N-terminal 3xFlag tag from vector p3xFLAG CMV-9
B2: mouse CD69 extracellular domain protein having 3xFlag-tag added thereto (3xFlag mCD69EC) (receptor, UniProt P37217 62-199, looked up)
chain: NVGKYNCPGLYEKLESSDHHVATCKNEWISYKRTCYFFSTTTKSWALAQRSCSEDAATLAVIDSEKDMTFLKRYSGELEHWIGLKNEANQTWKWANGKEFNSWFNLTGSGRCVSVNHKNVTAVDCEANFHWVCSKPSR
notes: extracellular domain; also called mCD69EC protein; not shown: N-terminal 3xFlag tag from vector p3xFLAG CMV-9

What all share (assay): immunoprecipitation with anti-Flag M2 antibody from bone marrow extract, immunoblot with anti-Myl9/12 antibody
Assay [1] concerns the target T1, mouse Myl9 (myosin regulatory light chain polypeptide 9) (mouse, UniProt Q9CQ19 2-172).
T1 construct: Native protein in mouse bone marrow extract (BM lysate) or mouse tissues; also called Myl9/12
T1 sequence: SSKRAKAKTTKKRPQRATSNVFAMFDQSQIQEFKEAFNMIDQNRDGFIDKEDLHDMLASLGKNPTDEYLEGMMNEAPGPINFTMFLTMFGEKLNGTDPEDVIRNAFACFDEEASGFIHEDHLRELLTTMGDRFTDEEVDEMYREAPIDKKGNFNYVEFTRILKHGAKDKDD
As for the experimental part: (§1) Then, whether the binding of Myl9, Myl12a, and Myl12b with CD69 actually occurred was investigated. Firstly, mCD69EC sequence was inserted to p3xFLAG CMV-9 (Sigma-Aldrich Co. LLC.) having Flag tag incorporated at the N-terminal to produce an expression vector of mCD69EC sequence having Flag-Tag added at the N-terminal. The expression vector was transformed to 293 T cells to overexpress 3xFlag mCD69EC, and then a cell extract was prepared. As a control, a cell extract was prepared from 293 T cells overexpressing 3xFlag peptide. 3xFlag mCD69EC protein or 3xFlag peptide was purified from the cell extract using anti-[…] (SEQ ID NO: 21) tag antibody beads (Wako Pure Chemical Industries, Ltd.). In this case, […] is a peptide represented by a single letter code for an amino acid. Those purified proteins were each subjected to a reaction with a bone marrow extract (BM lysate) in the same manner as described above and the resultant products were subjected to immunoprecipitation using anti-Flag M2 antibody (Sigma-Aldrich Co. LLC.) and protein-G (GE Healthcare). After the immunoprecipitation was performed, the precipitates were separated by SDS-PAGE and transferred to a polyvinylidene difluoride (PVDF) membrane (Bio-Rad Laboratories, Inc.). Subsequently, immunoblotting was performed using an antibody which recognized Myl9, Myl12a, and Myl12b (hereinafter referred to as anti-Myl9/12 antibody). That is, each protein was detected by ChemiDocXRS+ (Bio-Rad Laboratories, Inc.) with ECL detection reagents (GE Healthcare) using rabbit anti-Myl9 antibody (Abcam plc.) as a primary antibody and horseradish peroxidase (HRP)-labeled anti-rabbit IgG antibody (Cell Signaling Technology, Inc.) as a secondary antibody. Deglycosylation treatment of the mCD69EC protein was performed by adding 500 U of N-glycosidase PNGase F (New England Biolabs Ltd.) to 1 μg of 3xFLAG mCD69EC.

For assay [2], the target named is T2, mouse Myl12b (myosin regulatory light chain polypeptide 12b) (mouse, UniProt Q3THE2 1-172, limits assumed).
T2 construct: Native protein in mouse bone marrow extract (BM lysate) or mouse tissues; also called Myl9/12
T2 sequence: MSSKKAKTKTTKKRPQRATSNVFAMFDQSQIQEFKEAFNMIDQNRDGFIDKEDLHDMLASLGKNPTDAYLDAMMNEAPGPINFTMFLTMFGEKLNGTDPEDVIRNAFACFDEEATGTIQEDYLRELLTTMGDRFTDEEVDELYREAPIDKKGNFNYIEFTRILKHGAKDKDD
As for the experimental part:
as §1

For assay [3], the target named is B2. The method, then:
as §1

In assay [4] the target is B1. As for the experimental part:
as §1

For the molecule B1, the binding result in assay [1] and in assay [2] was “binds” throughout.
With B2, the binding result in assay [1] and in assay [2] was “binds” in each case.

B3: mouse Myl12a (myosin regulatory light chain polypeptide 12a) (ligand)
chain: MSSKRAKTKTTKKRPQRATSNVFAMFDQSQIQEFKEAFNMIDQNRDGFIDKEDLHDMLASMGKNPTDEYLDAMMNEAPGPINFTMFLTMFGEKLNGTDPEDVIRNAFACFDEEAIGTIQEDYLRELLTTMGDRFTDEEVDELYREAPIDKKGNFNYIEFTRILKHGAKDKDD
notes: Native protein in mouse bone marrow extract (BM lysate) or mouse tissues; also called Myl9/12
Take B3: the binding result in assay [3] and in assay [4] was “binds” each time.
